B1: FLAG-tagged FBXO44 FBA domain (FBXO44^FBA) [human] / RGS2^5–16 peptide (RGS2 degron, Met^5–Met^16) [not stated] (parent complex)
chain 1: FYFLRSLHRNLLHNPCAEEGFEFWSLDVNGGDEWKVEDLSRDQRKEFPNDQVKKYFVTSYYTCLKSQVVDLKAEGYWEELMDTTRPDIEVKDWFAARPDCGSKYQLCVQLLSSAHAPLGTFQPDPATIQQKSDAKWREVSHTFSNYPPGVRYIWFQHGGVDTHYWAGWYGPRVTNSSITIGP
chain 2: MFLAVQHDCRPM

Variants of: B1
Experiment: peptide microarray (PEPperPRINT), α-FLAG fluorescence; three independent experiments with three technical replicates each; parent: 100; read off a plot

Variant	percent of parent
chain 2 MFLAVQHDCRRM [chain 2 P11R]	~260 % Parent Peptide
chain 2 MFLAVQHDCRKM [chain 2 P11K]	~150 % Parent Peptide
chain 2 MFLAVQHDCRPR [chain 2 M12R]	~200 % Parent Peptide
chain 2 MFLAVQHDRRPM [chain 2 C9R]	~130 % Parent Peptide
chain 2 MFLAVQRDCRPM [chain 2 H7R]	~140 % Parent Peptide
chain 2 MFLAVQHKCRPM [chain 2 D8K]	~220 % Parent Peptide
chain 2 MFLAVQHRCRPM [chain 2 D8R]	~280 % Parent Peptide

Variants of: B1
Experiment: as above
Remark: another data set of the same source

Variant	percent of parent
chain 2 MFLAVQHDCRRM [chain 2 P11R]	~260 % Parent
chain 2 MFLAVQHDCRGM [chain 2 P11G]	~68 % Parent
chain 2 MFLAVQHDCREM [chain 2 P11E]	~88 % Parent
chain 2 MFLAVQHDCRQM [chain 2 P11Q]	~90 % Parent
chain 2 MFLAVQHDCRTM [chain 2 P11T]	~85 % Parent
chain 2 MFLAVQHDCRNM [chain 2 P11N]	~85 % Parent
chain 2 MFLAVQHDCRAM [chain 2 P11A]	~72 % Parent
chain 2 MFLAVQHDCRHM [chain 2 P11H]	~85 % Parent
chain 2 MFLAVQHDCRFM [chain 2 P11F]	~100 % Parent
chain 2 MFLAVQHDCRSM [chain 2 P11S]	~100 % Parent
chain 2 MFLAVQHDCRWM [chain 2 P11W]	~110 % Parent
chain 2 MFLAVQHDCRYM [chain 2 P11Y]	~110 % Parent
chain 2 MFLAVQHDCRIM [chain 2 P11I]	~88 % Parent
chain 2 MFLAVQHDCRVM [chain 2 P11V]	~85 % Parent
chain 2 MFLAVQHDCRLM [chain 2 P11L]	~82 % Parent
chain 2 MFLAVQHDCRDM [chain 2 P11D]	~130 % Parent
chain 2 MFLAVQHDCRCM [chain 2 P11C]	~120 % Parent
chain 2 MFLAVQHDCRKM [chain 2 P11K]	~150 % Parent
chain 2 MFLAVQHDCRMM [chain 2 P11M]	~100 % Parent

Variants of: B1
Experiment: as above
Remark: another data set of the same source

Variant	percent of parent
chain 2 MFLAVQHDCRPK [chain 2 M12K]	~140 % Parent
chain 2 MFLAVQHDCRPH [chain 2 M12H]	~90 % Parent
chain 2 MFLAVQHDCRPT [chain 2 M12T]	~85 % Parent
chain 2 MFLAVQHDCRPN [chain 2 M12N]	~87 % Parent
chain 2 MFLAVQHDCRPG [chain 2 M12G]	~72 % Parent
chain 2 MFLAVQHDCRPL [chain 2 M12L]	~90 % Parent
chain 2 MFLAVQHDCRPI [chain 2 M12I]	~85 % Parent
chain 2 MFLAVQHDCRPD [chain 2 M12D]	~130 % Parent
chain 2 MFLAVQHDCRPE [chain 2 M12E]	~110 % Parent
chain 2 MFLAVQHDCRPA [chain 2 M12A]	~67 % Parent
chain 2 MFLAVQHDCRPP [chain 2 M12P]	~90 % Parent
chain 2 MFLAVQHDCRPR [chain 2 M12R]	~200 % Parent
chain 2 MFLAVQHDCRPW [chain 2 M12W]	~110 % Parent
chain 2 MFLAVQHDCRPC [chain 2 M12C]	~130 % Parent
chain 2 MFLAVQHDCRPY [chain 2 M12Y]	~120 % Parent
chain 2 MFLAVQHDCRPQ [chain 2 M12Q]	~88 % Parent
chain 2 MFLAVQHDCRPV [chain 2 M12V]	~90 % Parent
chain 2 MFLAVQHDCRPS [chain 2 M12S]	~92 % Parent
chain 2 MFLAVQHDCRPF [chain 2 M12F]	~100 % Parent

Variants of: B1
Experiment: as above
Remark: another data set of the same source

Variant	percent of parent
chain 2 MFLAVQHDSRPM [chain 2 C9S]	~13 % Parent
chain 2 MFLAVQHDFRPM [chain 2 C9F]	~20 % Parent
chain 2 MFLAVQHDYRPM [chain 2 C9Y]	~55 % Parent
chain 2 MFLAVQHDHRPM [chain 2 C9H]	~17 % Parent
chain 2 MFLAVQHDARPM [chain 2 C9A]	~25 % Parent
chain 2 MFLAVQHDWRPM [chain 2 C9W]	~50 % Parent
chain 2 MFLAVQHDKRPM [chain 2 C9K]	~47 % Parent
chain 2 MFLAVQHDMRPM [chain 2 C9M]	~13 % Parent
chain 2 MFLAVQHDRRPM [chain 2 C9R]	~130 % Parent
chain 2 MFLAVQHDQRPM [chain 2 C9Q]	~25 % Parent
chain 2 MFLAVQHDVRPM [chain 2 C9V]	~13 % Parent
chain 2 MFLAVQHDERPM [chain 2 C9E]	~15 % Parent
chain 2 MFLAVQHDNRPM [chain 2 C9N]	~15 % Parent
chain 2 MFLAVQHDTRPM [chain 2 C9T]	~15 % Parent
chain 2 MFLAVQHDIRPM [chain 2 C9I]	~15 % Parent
chain 2 MFLAVQHDLRPM [chain 2 C9L]	~13 % Parent
chain 2 MFLAVQHDPRPM [chain 2 C9P]	~15 % Parent
chain 2 MFLAVQHDGRPM [chain 2 C9G]	~13 % Parent
chain 2 MFLAVQHDDRPM [chain 2 C9D]	~28 % Parent

Variants of: B1
Experiment: as above
Remark: another data set of the same source

Variant	percent of parent
chain 2 MFLAVQHDCFPM [chain 2 R10F]	~95 % Parent
chain 2 MFLAVQHDCTPM [chain 2 R10T]	~80 % Parent
chain 2 MFLAVQHDCYPM [chain 2 R10Y]	~120 % Parent
chain 2 MFLAVQHDCIPM [chain 2 R10I]	~78 % Parent
chain 2 MFLAVQHDCWPM [chain 2 R10W]	~120 % Parent
chain 2 MFLAVQHDCPPM [chain 2 R10P]	~80 % Parent
chain 2 MFLAVQHDCLPM [chain 2 R10L]	~82 % Parent
chain 2 MFLAVQHDCAPM [chain 2 R10A]	~72 % Parent
chain 2 MFLAVQHDCCPM [chain 2 R10C]	~110 % Parent
chain 2 MFLAVQHDCQPM [chain 2 R10Q]	~80 % Parent
chain 2 MFLAVQHDCMPM [chain 2 R10M]	~88 % Parent
chain 2 MFLAVQHDCNPM [chain 2 R10N]	~82 % Parent
chain 2 MFLAVQHDCEPM [chain 2 R10E]	~110 % Parent
chain 2 MFLAVQHDCSPM [chain 2 R10S]	~85 % Parent
chain 2 MFLAVQHDCKPM [chain 2 R10K]	~80 % Parent
chain 2 MFLAVQHDCVPM [chain 2 R10V]	~85 % Parent
chain 2 MFLAVQHDCHPM [chain 2 R10H]	~75 % Parent
chain 2 MFLAVQHDCDPM [chain 2 R10D]	~110 % Parent
chain 2 MFLAVQHDCGPM [chain 2 R10G]	~78 % Parent

Variants of: B1
Experiment: as above
Remark: another data set of the same source

Variant	percent of parent
chain 2 MFLAVQFDCRPM [chain 2 H7F]	~100 % Parent
chain 2 MFLAVQKDCRPM [chain 2 H7K]	~120 % Parent
chain 2 MFLAVQNDCRPM [chain 2 H7N]	~100 % Parent
chain 2 MFLAVQEDCRPM [chain 2 H7E]	~95 % Parent
chain 2 MFLAVQPDCRPM [chain 2 H7P]	~110 % Parent
chain 2 MFLAVQADCRPM [chain 2 H7A]	~95 % Parent
chain 2 MFLAVQVDCRPM [chain 2 H7V]	~100 % Parent
chain 2 MFLAVQDDCRPM [chain 2 H7D]	~100 % Parent
chain 2 MFLAVQYDCRPM [chain 2 H7Y]	~110 % Parent
chain 2 MFLAVQCDCRPM [chain 2 H7C]	~120 % Parent
chain 2 MFLAVQMDCRPM [chain 2 H7M]	~95 % Parent
chain 2 MFLAVQSDCRPM [chain 2 H7S]	~100 % Parent
chain 2 MFLAVQGDCRPM [chain 2 H7G]	~90 % Parent
chain 2 MFLAVQTDCRPM [chain 2 H7T]	~95 % Parent
chain 2 MFLAVQRDCRPM [chain 2 H7R]	~140 % Parent
chain 2 MFLAVQLDCRPM [chain 2 H7L]	~100 % Parent
chain 2 MFLAVQQDCRPM [chain 2 H7Q]	~110 % Parent
chain 2 MFLAVQIDCRPM [chain 2 H7I]	~100 % Parent
chain 2 MFLAVQWDCRPM [chain 2 H7W]	~110 % Parent

Variants of: B1
Experiment: as above
Remark: another data set of the same source

Variant	percent of parent
chain 2 MFLAVQHTCRPM [chain 2 D8T]	~130 % Parent
chain 2 MFLAVQHKCRPM [chain 2 D8K]	~220 % Parent
chain 2 MFLAVQHACRPM [chain 2 D8A]	~120 % Parent
chain 2 MFLAVQHPCRPM [chain 2 D8P]	~160 % Parent
chain 2 MFLAVQHMCRPM [chain 2 D8M]	~140 % Parent
chain 2 MFLAVQHQCRPM [chain 2 D8Q]	~160 % Parent
chain 2 MFLAVQHVCRPM [chain 2 D8V]	~140 % Parent
chain 2 MFLAVQHLCRPM [chain 2 D8L]	~130 % Parent
chain 2 MFLAVQHICRPM [chain 2 D8I]	~140 % Parent
chain 2 MFLAVQHGCRPM [chain 2 D8G]	~130 % Parent
chain 2 MFLAVQHRCRPM [chain 2 D8R]	~280 % Parent
chain 2 MFLAVQHCCRPM [chain 2 D8C]	~140 % Parent
chain 2 MFLAVQHECRPM [chain 2 D8E]	~100 % Parent
chain 2 MFLAVQHYCRPM [chain 2 D8Y]	~130 % Parent
chain 2 MFLAVQHNCRPM [chain 2 D8N]	~150 % Parent
chain 2 MFLAVQHSCRPM [chain 2 D8S]	~160 % Parent
chain 2 MFLAVQHWCRPM [chain 2 D8W]	~150 % Parent
chain 2 MFLAVQHFCRPM [chain 2 D8F]	~130 % Parent
chain 2 MFLAVQHHCRPM [chain 2 D8H]	~130 % Parent

— publication PMC12554172 (2025)
